Results from patent EP4467563A1 (priority 2023, dated 2024).

Target: T1, LDLR (Homo sapiens, UniProt P01130)
T1 construct: expressed in transfected cells; host or cells: HEK293 (ATCC CRL-1573)
Type: binding

T1 sequence (P01130 22-860): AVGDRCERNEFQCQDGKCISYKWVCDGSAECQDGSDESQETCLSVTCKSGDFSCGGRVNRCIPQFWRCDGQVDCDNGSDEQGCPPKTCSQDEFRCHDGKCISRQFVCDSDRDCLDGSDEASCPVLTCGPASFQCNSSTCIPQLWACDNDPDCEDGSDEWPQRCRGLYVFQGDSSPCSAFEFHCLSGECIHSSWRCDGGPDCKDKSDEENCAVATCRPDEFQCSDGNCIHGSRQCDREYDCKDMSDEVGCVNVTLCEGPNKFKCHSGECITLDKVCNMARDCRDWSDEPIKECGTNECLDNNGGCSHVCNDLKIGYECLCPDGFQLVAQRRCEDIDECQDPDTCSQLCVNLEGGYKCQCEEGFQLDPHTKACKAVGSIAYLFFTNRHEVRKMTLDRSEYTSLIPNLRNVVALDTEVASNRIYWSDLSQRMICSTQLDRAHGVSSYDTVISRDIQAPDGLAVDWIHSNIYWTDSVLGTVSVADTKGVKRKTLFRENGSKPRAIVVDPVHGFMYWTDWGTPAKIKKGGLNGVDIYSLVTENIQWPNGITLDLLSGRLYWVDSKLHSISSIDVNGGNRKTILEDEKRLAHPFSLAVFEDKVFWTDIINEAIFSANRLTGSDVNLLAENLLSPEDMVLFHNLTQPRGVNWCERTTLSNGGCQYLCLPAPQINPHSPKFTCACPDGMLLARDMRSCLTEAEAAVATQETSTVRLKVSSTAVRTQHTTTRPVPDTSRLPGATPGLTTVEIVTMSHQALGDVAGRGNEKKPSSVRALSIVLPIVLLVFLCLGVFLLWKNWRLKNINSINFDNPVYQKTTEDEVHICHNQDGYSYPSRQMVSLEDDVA

BODIPY-FL-labelled LDL: BOPIDY FL complexed LDL purchased from ThermoFisher Scientific; fluorescent ligand for the BRET binding assay
ligand-binding BRET signal (binding to LDLR): concentration-dependent ligand-binding BRET signal
